Measured values: patent publication US20180223285A1

Target: human C5a receptor (human) (UniProt P21730)
Test: cell-based or functional assay

human C5a receptor (human), sequence (P21730 whole entry): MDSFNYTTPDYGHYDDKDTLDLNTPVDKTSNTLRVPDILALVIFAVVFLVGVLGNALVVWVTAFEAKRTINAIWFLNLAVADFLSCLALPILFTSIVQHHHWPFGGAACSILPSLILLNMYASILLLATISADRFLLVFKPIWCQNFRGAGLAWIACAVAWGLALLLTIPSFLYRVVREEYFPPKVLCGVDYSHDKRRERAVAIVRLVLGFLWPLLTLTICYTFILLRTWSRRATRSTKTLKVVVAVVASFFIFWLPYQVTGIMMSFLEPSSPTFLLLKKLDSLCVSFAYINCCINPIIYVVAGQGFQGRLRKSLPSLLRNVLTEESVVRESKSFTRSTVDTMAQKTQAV

Row | Substance | half effective concentration (EC50) of chemotaxis of BA/F3/huC5aR cells [pM]
1 | mouse C5a (from UniProt P06684 679-755) (ligand) | 300
2 | recombinant human C5a (from UniProt P01031 678-751) (ligand) | 100
